Test results as given in the supplement of paper PMC7877785.
± gives the uncertainty stated by the source.

Assay: self-splicing fitness, log relative to wild type (ln ratio); higher = more splicing; Tetrahymena group I intron in knt gene, E. coli kanamycin selection, DiMSum; sequences stand for … in CUCUCU…GGAGGGAAAAGUUAUCAGGCAUGCACCUGGUAGCUAGUCUUUAAACCAAUAGAUUGCAUCGGUUUAAAAGGCAAGACCGUCAAAUUGCGGGAAAGGGGUCAACAGCCGUUCAGUACCAAGUCUCAGGGGAAACUUUGAGAUGGCCUUGCAAAGGGUAUGGUAAUAAGCUGACGGACAUGGUCCUAACCACGCAGCCAAGUCCUAAGUCAACAGAUCUUCUGUUGAUAUGGAUGCAGUUCACAGACUAAAUGUCGGUCGGGGAAGAUGUAUUCUUCUCAUAAGAUAUAGUCGGACCUCUCCUUAAUGGGAGCUAGCGGAUGAAGUGAUGCAACACUGGAGCCGCUGGGAACUAAUUUGUAUGCGAAAGUAUAUUGAUUAGUUUUGGAGUACUCGUGGUCG
In short: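 The eight P1ex-region nucleotides of an intron in the knt kanamycin-resistance gene on pET-22b(+) were all randomised and the library put into E. coli BL21(DE3). Six replicate transformations were grown overnight at 37°C or 30°C on LB agar with or without 25 μg/mL kanamycin, together with 100 μg/mL carbenicillin, 50 μM IPTG and 0.2% rhamnose. Colonies were pooled and amplicon-sequenced on an Illumina HiSeq 2500. Fitness from DiMSum is the error-weighted combination of wild-type-normalised replicate fold changes, kanamycin over none.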

| Sequence | self-splicing fitness (ln) (30 °C) | self-splicing fitness (ln) (37 °C) |
| --- | --- | --- |
| GUUCAGCAAUAUUACGGAGU | -1.48 ± 0.12 | -0.963 ± 0.15 |
| UAUCAGCAAUAUUACGAACU | -1.2 ± 0.14 | 0.231 ± 0.13 |
| AGACAGCAAUAUUACGUCCA | -0.173 ± 0.092 | -0.591 ± 0.14 |
| AGGCAGCAAUAUUACGAAUG | -1.83 ± 0.17 | -1.73 ± 0.2 |
| UAUCAGCAAUAUUACGAAGC | -3.75 ± 0.36 | -2.09 ± 0.31 |
| AUGAAGCAAUAUUACGACGG | -0.0267 ± 0.085 | 0.216 ± 0.14 |
| ACGUAGCAAUAUUACGGGAG | -3.63 ± 0.17 | -2.28 ± 0.17 |
| GAUUAGCAAUAUUACGGUAU | -1.75 ± 0.12 | -1.14 ± 0.14 |
| GAAUAGCAAUAUUACGGAUG | -2.29 ± 0.099 | -2.01 ± 0.12 |
| CCGAAGCAAUAUUACGAUUU | -1.44 ± 0.16 | -2.58 ± 0.24 |
| AGCCAGCAAUAUUACGAAUG | – | -2.45 ± 0.28 |
| CAAAAGCAAUAUUACGCCCA | -1.69 ± 0.21 | -0.538 ± 0.2 |
| CCCGAGCAAUAUUACGGCUU | -3.29 ± 0.17 | -2.71 ± 0.2 |
| GAAUAGCAAUAUUACGUUAC | -1.97 ± 0.13 | -1.6 ± 0.21 |
| UGGCAGCAAUAUUACGGCUC | -0.609 ± 0.082 | -0.683 ± 0.11 |
| AGCGAGCAAUAUUACGGGCA | -0.63 ± 0.061 | -0.562 ± 0.075 |
| CCCAAGCAAUAUUACGCUGU | -3.8 ± 0.15 | -2.95 ± 0.17 |
| AAGAAGCAAUAUUACGGUCU | -0.564 ± 0.066 | -0.233 ± 0.1 |
| ACGGAGCAAUAUUACGGUAU | -4.48 ± 0.25 | -2.58 ± 0.2 |
| AUGAAGCAAUAUUACGGCGA | 0.267 ± 0.082 | 0.989 ± 0.11 |
| UAAAAGCAAUAUUACGUGUC | -3.12 ± 0.25 | -2.5 ± 0.2 |
| ACACAGCAAUAUUACGUGGA | -2.25 ± 0.096 | -1.18 ± 0.066 |
| CACGAGCAAUAUUACGCGGU | -3.13 ± 0.15 | -3.5 ± 0.24 |
| CAGCAGCAAUAUUACGUGAG | -0.675 ± 0.06 | -0.267 ± 0.086 |
| UCGAAGCAAUAUUACGAGAU | -4.08 ± 0.42 | -2.66 ± 0.21 |
| AUCUAGCAAUAUUACGCGCC | -0.659 ± 0.17 | -0.398 ± 0.16 |

| Sequence | self-splicing fitness (ln) (30 °C) | self-splicing fitness (ln) (37 °C) |
| --- | --- | --- |
| GCACAGCAAUAUUACGAGGA | -2.11 ± 0.096 | -1.23 ± 0.099 |
| CUGCAGCAAUAUUACGGCCU | -3.23 ± 0.17 | -1.56 ± 0.15 |
| ACCUAGCAAUAUUACGACCA | -1.25 ± 0.16 | 0.323 ± 0.17 |
| ACUCAGCAAUAUUACGAUCA | -0.712 ± 0.13 | -0.359 ± 0.12 |
| CUGUAGCAAUAUUACGUCAC | -3.21 ± 0.24 | – |
| AACAAGCAAUAUUACGACCG | -0.711 ± 0.12 | 0.209 ± 0.16 |
| GACGAGCAAUAUUACGUACA | -3.04 ± 0.27 | -2.26 ± 0.2 |
| GGAGAGCAAUAUUACGAGCC | -2.64 ± 0.49 | – |
| GAACAGCAAUAUUACGUCGA | -0.66 ± 0.066 | -0.117 ± 0.076 |
| CGGAAGCAAUAUUACGCGGU | -3.98 ± 0.29 | -2.73 ± 0.22 |
| UACAAGCAAUAUUACGGGCU | -4.2 ± 0.34 | -2.82 ± 0.18 |
| CGAGAGCAAUAUUACGUCAG | -2.31 ± 0.17 | -2.54 ± 0.21 |
| GGGUAGCAAUAUUACGUAGC | -0.707 ± 0.15 | -0.648 ± 0.16 |
| UCUAAGCAAUAUUACGGCGC | -1.94 ± 0.34 | -1.43 ± 0.26 |
| UGAAAGCAAUAUUACGCGAU | -2.15 ± 0.14 | -2.37 ± 0.19 |
| AACCAGCAAUAUUACGCGGA | -2.05 ± 0.093 | -0.49 ± 0.072 |
| UGUGAGCAAUAUUACGCAAU | -4.42 ± 0.42 | -2.73 ± 0.31 |
| UAACAGCAAUAUUACGAUUA | -0.131 ± 0.047 | -0.103 ± 0.058 |
| AGCCAGCAAUAUUACGGUUU | -3.43 ± 0.2 | -2.04 ± 0.18 |
| GUUAAGCAAUAUUACGGUAC | -1.7 ± 0.17 | -1.33 ± 0.22 |
| CAAGAGCAAUAUUACGACCG | -0.953 ± 0.13 | -0.89 ± 0.14 |
| GUAAAGCAAUAUUACGGUAU | -0.495 ± 0.059 | 0.118 ± 0.084 |
| CCAGAGCAAUAUUACGCGUG | -0.704 ± 0.069 | -0.93 ± 0.095 |
| ACUGAGCAAUAUUACGCGAU | -3.36 ± 0.25 | -1.71 ± 0.14 |
| GAGCAGCAAUAUUACGUGGA | -3.09 ± 0.22 | -1.69 ± 0.15 |
| GUCUAGCAAUAUUACGAUCU | -1.57 ± 0.12 | -0.315 ± 0.14 |

| Sequence | self-splicing fitness (ln) (30 °C) | self-splicing fitness (ln) (37 °C) |
| --- | --- | --- |
| CUAAAGCAAUAUUACGCUUA | -3.75 ± 0.37 | -2.75 ± 0.39 |
| UGUGAGCAAUAUUACGGCUA | -0.645 ± 0.13 | -0.508 ± 0.15 |
| CCUAAGCAAUAUUACGUGUC | -3.86 ± 0.27 | -1.54 ± 0.12 |
| AAGAAGCAAUAUUACGUAGA | -2.64 ± 0.13 | -1.01 ± 0.11 |
| AUGGAGCAAUAUUACGAAAG | -2.94 ± 0.24 | -2.11 ± 0.32 |
| CUUUAGCAAUAUUACGGAAG | -3.17 ± 0.19 | -2.8 ± 0.23 |
| UUCCAGCAAUAUUACGCAGU | -3.23 ± 0.17 | -2.79 ± 0.28 |
| CCAAAGCAAUAUUACGAUUG | -1.36 ± 0.06 | -0.695 ± 0.081 |
| AACAAGCAAUAUUACGGCCC | -0.249 ± 0.12 | -0.0486 ± 0.2 |
| UACUAGCAAUAUUACGCGCA | -0.569 ± 0.071 | 0.207 ± 0.094 |
| AAUGAGCAAUAUUACGAACG | -2.46 ± 0.31 | -1.74 ± 0.3 |
| GGAAAGCAAUAUUACGUCUC | -3.22 ± 0.41 | – |
| UUUUAGCAAUAUUACGCGAA | -1.57 ± 0.28 | -1.08 ± 0.39 |
| CUCCAGCAAUAUUACGCCGU | -3.6 ± 0.3 | -3.11 ± 0.35 |
| GCCAAGCAAUAUUACGCGGA | -1.1 ± 0.099 | -0.277 ± 0.11 |
| AUUCAGCAAUAUUACGGGCC | -2.57 ± 0.33 | -1.82 ± 0.34 |
| AGGAAGCAAUAUUACGAACC | -0.283 ± 0.29 | -0.131 ± 0.3 |
| CGGUAGCAAUAUUACGGAAG | -0.936 ± 0.13 | -0.67 ± 0.14 |
| UAAGAGCAAUAUUACGACAA | -3.57 ± 0.43 | -1.79 ± 0.29 |
| AAAAAGCAAUAUUACGGCCG | -0.279 ± 0.092 | 0.159 ± 0.13 |
| CGUAAGCAAUAUUACGUCAC | – | -2.59 ± 0.44 |
| ACUUAGCAAUAUUACGAUUU | -0.382 ± 0.07 | 0.252 ± 0.092 |
| AACUAGCAAUAUUACGAGCC | -0.792 ± 0.47 | -1.17 ± 0.34 |
| AGAGAGCAAUAUUACGCGAC | -2.11 ± 0.34 | -1.87 ± 0.39 |
